T1: synthetic peptide corresponding to bovine kappa-CN
T1 chain: HPHPHLSXMAI

T2: synthetic peptide corresponding to camel kappa-CN
T2 chain: RPRPRPSXIAI


How the values were obtained:
[1] = biological target: T1, synthetic peptide corresponding to …
[2] = biological target: T2, synthetic peptide corresponding to …

Protein | KM for Bt κ-CN [1] | kcat for Bt κ-CN [1] | KM for Cd κ-CN [2] | kcat for Cd κ-CN [2]
recombinantly produced bovine chymosin, ChyMax (protein) GEVASVPLTNYLDSQYFGKIYLGTPPQEFTVLFDTGSSDFWVPSIYCKSNACKNHQRFDPRKSSTFQNLGKPLSIHYGTGSMQGILGYDTVTVSNIVDIQQTVGLSTQEPGDVFTYAEFDGILGMAYPSLASEYSIPVFDNMMNRHLVAQDLFSVYMDRNGQESMLTLGAIDPSYYTGSLHWVPVTVQQYWQFTVDSVTISGVVVACEGGCQAILDTGTSKLVGPSSDILNIQQAIGATQNQYGEFDIDCDNLSYMPTVVFEINGKMYPLTPSAYTSQDQGFCTSGFQSENHSQKWILGDVFIREYYSVFDRANNLVGLAKAI | 0.165 ± 0.015/-0.014 mM | 44.3 s⁻¹ | 0.134 ± 0.022/-0.021 mM | 4.3 s⁻¹
recombinant Camelus dromedarius chymosin (protein) GKVAREPLTSYLDSQYFGKIYIGTPPQEFTVVFDTGSSDLWVPSIYCKSNVCKNHHRFDPRKSSTFRNLGKPLSIHYGTGSMEGFLGYDTVTVSNIVDPNQTVGLSTEQPGEVFTYSEFDGILGLAYPSLASEYSVPVFDNMMDRHLVARDLFSVYMDRNGQGSMLTLGAIDPSYYTGSLHWVPVTLQQYWQFTVDSVTINGVAVACVGGCQAILDTGTSVLFGPSSDILKIQMAIGATENRYGEFDVNCGNLRSMPTVVFEINGRDYPLSPSAYTSKDQGFCTSGFQGDNNSELWILGDVFIREYYSVFDRANNRVGLAKAI | 0.077 ± 0.019/-0.015 mM | 11.7 ± 1.5/-1.2 s^-1 | 0.056 ± 0.035/-0.021 mM | 5.1 ± 1.7/-1.0 s^-1
